Measurements reported in US12448436B2, “Antibody specifically binding to GRP94 or antigen-binding fragment thereof, and uses thereof” (KOOKMIN UNIVERSITY INDUSTRY ACADEMY COOPERATION FOUNDATION, priority 2020, dated 2025).
“Also recorded” adds a separate entry of the source.

What was measured:
[1] = In vivo hepatotoxicity and nephrotoxicity in colorectal xenograft model; parameters: species or system Balb/c nude mice; conditions: mouse, 10 mg/kg
Method: To assay the four antibodies of the present disclosure for in vivo hepatotoxicity and nephrotoxicity, the same xenograft model as in Example 11 weighed every week. After six weeks of the experiment, GOT (glutamic oxaloacetic transaminase), GPT (glutamate pyruvate transaminase), and TBIL (total bilirubin) were measured for hepatotoxicity assay while BUN (blood urea nitrogen) and CRE (creatinine) were measured for nephrotoxicity assay. The results are depicted in FIGS. 27a and 27b.

HCT116 cells = test: In vitro CRC proliferation assay, HCT116; type: cell-based, human; conditions: 20 μg/mL, end point, relative to the control PBS
Method: The four anti-GRP94 human IgG antibodies B5, E5, 2H5, and 3G7 of the present disclosure were examined in vitro for effect on CRC cell proliferation. For use in the efficacy assay, the four cetuximab-resistant colorectal cancer cell lines HCT116, HT29, LoVo, and HCT-8 were each grown in a culture medium (HCT116, HCT8, HT29, and LoVo: RPMI1640+10% FBS+1% Penicillin-Streptomycin) at 37° C. in T-75 flask in a 5% CO2 incubator until reaching about 80-90% confluency. The culture medium was removed by suction and the cells were washed with 10 mL of phosphate buffered saline (hereinafter PBS). After removal of PBS by suction, the cells were treated 2 mL of TrypLE Express Enzyme at 37° C. for 3 minutes in a 5% CO2 incubator. Thereafter, the cells were added with 8 mL of the culture medium, transferred to 15-mL tube, and centrifuged at 500×g for 5 minutes. After removal of the supernatant, the cells were suspended in the culture medium. From a small portion of the cell suspension, the cells were counted using the Countess II Automated Cell Counter. […] The 96-well plates were mounted on the Incucyte Zoom system. With the microscope magnification set at 4×, images were collected at intervals of 2 hours for 72 hours. From the collected images, cell growth was monitored using the IncuCyte FLR live content imaging system (Essen Bioscience, Ann Arbor, MI, USA).

Molecule	changes in body weight [1]	changes in serum levels of liver and kidney functional indices (GOT, GPT, TBIL, BUN, and CREA) [1]	cell growth inhibitory ability (HCT116 cells)
B5: anti-GRP94 human IgG antibody; CDRs SEQ ID NOS: 1 to 6, VH SEQ ID NO: 7, VL SEQ ID NO: 8 (antibody, V domains shown, Amino acid sequence of heavy chain variable of GRP94 B5; Amino acid sequence of light chain variable of GRP94 B5) VH: EVQLLESGGGLVQPGGSLRLSCAASGFTFSNYYMSWVRQAPGKGLEWVSGIYPNSGSTYYADSVKGRFTISRDNSKNTLYLQMNSLRAEDTAVYYCARDPLHPARFPFDYWGQGTLVTVSS VL: QSVLTQPPSASGTPGQRVTISCTGSSSNIGNNAVSWYQQLPGTAPKLLIYADSHRPSGVPDRFSGSKSGTSASLAISGLRSEDEADYYCGAWDASLNAYVFGGGTKLTVL	no significant changes	no significant changes	statistically significant; also recorded: excellent inhibitory activity
E5: anti-GRP94 human IgG antibody; CDRs SEQ ID NOS: 9 to 14, VH SEQ ID NO: 15, VL SEQ ID NO: 16 (antibody, V domains shown, Amino acid sequence of heavy chain variable of GRP94 E5; Amino acid sequence of light chain variable of GRP94 E5) VH: EVQLLESGGGLVQPGGSLRLSCAASGFTFSNYAMSWVRQAPGKGLEWVSGISSSSGSTYYADSVKGRFTTSRDNSKNTLYLQMNSLRAEDTAVYYCARDRHPFSPNWFDYWGQGTLVTVSS VL: QSVLTQPPSASGTPGQRVTISCSGSPSNIGSNTVTWYQQLPGTAPKLLIYADSHRPSGVPDRFSGSKSGTSASLAISGLRSEDEADYYCASWDDSLNGYVFGGGTKLTVL	no significant changes	no significant changes	statistically significant; also recorded: excellent inhibitory activity
3G7: anti-GRP94 human IgG antibody; CDRs SEQ ID NOS: 25 to 30, VH SEQ ID NO: 31, VL SEQ ID NO: 32 (antibody, V domains shown, Amino acid sequence of heavy chain variable of GRP94 3G7; Amino acid sequence of light chain variable of GRP94 3G7) VH: EVQLLESGGGLVQPGGSLRLSCAASGFTFSNYSMSWVRQAPGKGLEWVSGIYYGSGNKYYADSVKGRFTISRDNSKNTLYLQMNSLRAEDTAVYYCAKNLASFDYWGQGTLVTVSS VL: QSVLTQPPSASGTPGQRVTISCSGSSSNIGSNSVNWYQQLPGTAPKLLIYSNSHRPSGVPDRFSGSKSGTSASLAISGLRSEDEADYYCGTWDSSLSGYVFGGGTKLTVL	no significant changes	no significant changes	statistically significant; also recorded: excellent inhibitory activity
